Drawing on patent US20090175860A1 (Novartis, published 2009), this text covers Kd for six molecules.

As usually defined, the Kd is a measure of binding affinity in units of concentration.

Experiment [1] addresses T1, rhesus c-Met on 4MBr-5 cells (rhesus).
T1 construct: whole, on cells
Kind of experiment: flow cytometry, Fab titration on rhesus 4MBr-5 cells. How it is done:
(§1) In order to further characterize the anti-c-Met antibodies, the affinity to full length human and cynomolgus c-Met is determined. GTL16, CHO cells overexpressing cynomolgus c-Met or rhesus 4 MBr-5 cells are washed, trypsinised, and suspended in PBS containing 3% FCS (3% FCS/PBS) at 4-C. 2-5×10⁵ cells/sample are resuspended in 140 μl of 3% FCS//PBS containing 5 μg/ml of purified anti-cMet Fabs or serial dilutions thereof. As a positive control 5 μg/ml of DO24 (mouse IgG2a), anti-human c-Met is used. The cells are incubated for 30-60 minutes at 4° C. before being pelleted by centrifugation for 2 min at 2000 rpm (716 g) at 4° C. and washed in 200 μl of in chilled 3% FCS/PBS. The cells are again pelleted by centrifugation and the PBS gently removed. Cells are resuspended in 100 μl of goat anti-human IgG (H+L) PE conjugated (Jackson Cat No. 109-116-088) diluted 1:200 in 3% FCS/0.02% NaN₃/PBS; For the positive control goat anti-mouse IgG (H+L)-PE conjugated (Jackson Cat No. 115-116-146) diluted 1:200 in 3% FCS/PBS is used. Samples are incubated in the dark for 30-60 min at 4° C. Following centrifugation and washing in 200 μl of 3% FCS/0.02%/NaN₃/PBS the cells are resuspended in 100 μl of 3% FCS/PBS and assayed using FACS-array or FACS-Calibur.
Background: Flow cytometry measures light scatter and fluorescence of single cells or particles in a stream.

In experiment [2] the target is T2, cynomolgus c-Met on CHO cells (cynomolgus, UniProt A0A2K5UM36 25-1381, The natural precursor is cleaved into disulfide-linked alpha and beta subunits. It is given here as one mature chain, following the entry's CHAIN feature.).
T2 construct: also called cyno c-Met; CHO-cMet cyno
T2 sequence (A0A2K5UM36 entry or part of it limits assumed): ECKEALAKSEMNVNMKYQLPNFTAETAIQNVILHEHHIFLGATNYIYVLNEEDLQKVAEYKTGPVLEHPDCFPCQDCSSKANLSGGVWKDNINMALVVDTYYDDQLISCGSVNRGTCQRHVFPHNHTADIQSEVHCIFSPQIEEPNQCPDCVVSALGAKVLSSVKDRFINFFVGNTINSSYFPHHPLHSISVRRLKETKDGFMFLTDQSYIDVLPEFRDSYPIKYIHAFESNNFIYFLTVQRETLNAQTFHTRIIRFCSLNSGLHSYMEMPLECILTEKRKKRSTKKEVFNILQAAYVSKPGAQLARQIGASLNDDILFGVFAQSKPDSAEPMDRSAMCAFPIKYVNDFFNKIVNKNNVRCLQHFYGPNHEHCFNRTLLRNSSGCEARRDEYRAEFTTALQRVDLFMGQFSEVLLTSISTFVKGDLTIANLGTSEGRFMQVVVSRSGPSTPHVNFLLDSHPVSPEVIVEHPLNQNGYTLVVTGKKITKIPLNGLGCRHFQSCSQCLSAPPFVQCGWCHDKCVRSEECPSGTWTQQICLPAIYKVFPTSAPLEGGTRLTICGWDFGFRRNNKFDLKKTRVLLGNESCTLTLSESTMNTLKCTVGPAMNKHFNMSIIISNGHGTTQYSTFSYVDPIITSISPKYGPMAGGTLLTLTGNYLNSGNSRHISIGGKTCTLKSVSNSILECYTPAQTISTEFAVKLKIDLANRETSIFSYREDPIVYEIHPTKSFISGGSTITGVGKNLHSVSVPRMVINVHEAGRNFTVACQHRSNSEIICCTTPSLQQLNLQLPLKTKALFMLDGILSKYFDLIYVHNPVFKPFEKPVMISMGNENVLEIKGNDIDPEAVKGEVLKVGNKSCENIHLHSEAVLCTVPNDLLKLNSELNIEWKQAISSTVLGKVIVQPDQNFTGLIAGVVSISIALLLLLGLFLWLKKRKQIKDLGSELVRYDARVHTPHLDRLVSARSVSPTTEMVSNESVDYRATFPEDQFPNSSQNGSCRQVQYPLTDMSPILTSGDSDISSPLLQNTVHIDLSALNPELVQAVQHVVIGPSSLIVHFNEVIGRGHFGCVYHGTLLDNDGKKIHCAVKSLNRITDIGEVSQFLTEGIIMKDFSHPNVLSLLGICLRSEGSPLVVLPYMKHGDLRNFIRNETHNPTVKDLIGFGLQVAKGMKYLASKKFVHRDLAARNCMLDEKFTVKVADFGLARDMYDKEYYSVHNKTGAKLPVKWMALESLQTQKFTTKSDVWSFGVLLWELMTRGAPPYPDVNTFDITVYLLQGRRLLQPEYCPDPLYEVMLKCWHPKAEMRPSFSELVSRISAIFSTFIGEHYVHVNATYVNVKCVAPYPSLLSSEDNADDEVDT
Briefly: flow cytometry, Fab titration on CHO cells overexpressing cynomolgus c-Met. As to the method: as §1

In experiment [3] the target is T3, full length human c-Met on cells (human, UniProt P08581 25-1390).
T3 construct: whole, on cells; NCI-H441 for migration; A549 for autophosphorylation; also called human c-Met GTL-16; c-Met on NCI-H441 cells
T3 sequence (P08581 25-1390): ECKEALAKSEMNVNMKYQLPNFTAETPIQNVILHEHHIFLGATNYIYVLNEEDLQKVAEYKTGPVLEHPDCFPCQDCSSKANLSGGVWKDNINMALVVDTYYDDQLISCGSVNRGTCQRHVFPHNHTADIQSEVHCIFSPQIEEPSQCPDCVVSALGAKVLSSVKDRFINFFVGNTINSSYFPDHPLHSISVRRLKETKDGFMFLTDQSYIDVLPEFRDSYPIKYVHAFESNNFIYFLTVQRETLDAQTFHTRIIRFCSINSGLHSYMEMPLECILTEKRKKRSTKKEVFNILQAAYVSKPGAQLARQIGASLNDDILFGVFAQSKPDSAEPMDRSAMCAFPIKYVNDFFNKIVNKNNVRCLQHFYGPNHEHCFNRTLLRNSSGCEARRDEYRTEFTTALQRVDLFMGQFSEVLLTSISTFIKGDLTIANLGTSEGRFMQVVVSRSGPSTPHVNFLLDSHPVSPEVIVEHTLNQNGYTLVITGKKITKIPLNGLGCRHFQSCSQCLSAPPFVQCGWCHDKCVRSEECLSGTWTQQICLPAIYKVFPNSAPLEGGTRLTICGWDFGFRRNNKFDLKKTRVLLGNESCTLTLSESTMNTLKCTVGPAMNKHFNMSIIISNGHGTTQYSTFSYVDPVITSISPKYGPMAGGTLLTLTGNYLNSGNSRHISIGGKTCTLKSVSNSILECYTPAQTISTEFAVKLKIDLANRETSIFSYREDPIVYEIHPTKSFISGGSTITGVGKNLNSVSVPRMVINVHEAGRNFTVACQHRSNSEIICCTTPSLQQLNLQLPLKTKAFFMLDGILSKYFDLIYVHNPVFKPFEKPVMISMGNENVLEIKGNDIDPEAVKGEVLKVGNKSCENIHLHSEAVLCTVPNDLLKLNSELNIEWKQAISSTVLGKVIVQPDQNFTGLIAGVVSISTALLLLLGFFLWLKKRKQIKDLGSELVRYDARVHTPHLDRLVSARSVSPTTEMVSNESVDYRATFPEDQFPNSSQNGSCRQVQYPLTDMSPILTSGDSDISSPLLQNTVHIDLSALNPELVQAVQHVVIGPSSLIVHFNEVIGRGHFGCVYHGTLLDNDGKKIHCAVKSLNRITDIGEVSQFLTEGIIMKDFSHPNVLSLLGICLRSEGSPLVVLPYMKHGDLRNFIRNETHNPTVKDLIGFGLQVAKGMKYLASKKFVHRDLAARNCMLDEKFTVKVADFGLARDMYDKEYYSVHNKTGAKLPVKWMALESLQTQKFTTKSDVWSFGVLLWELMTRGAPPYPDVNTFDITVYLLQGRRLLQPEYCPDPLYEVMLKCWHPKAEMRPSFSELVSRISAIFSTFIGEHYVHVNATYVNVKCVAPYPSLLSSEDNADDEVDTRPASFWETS
Kind of experiment: flow cytometry, Fab titration on GTL-16 cells. How it is done:
as §1

For experiment [4], the target named is T4, recombinant human c-Met (human, UniProt P08581 25-932, limits assumed).
T4 construct: Soluble recombinant protein: immobilised on the CM5 chip in Biacore, in solution in the equilibrium titration; The precursor is cleaved into disulfide-linked alpha and beta subunits; also called Hepatocyte Growth Factor Receptor
T4 sequence (P08581 25-932 limits assumed): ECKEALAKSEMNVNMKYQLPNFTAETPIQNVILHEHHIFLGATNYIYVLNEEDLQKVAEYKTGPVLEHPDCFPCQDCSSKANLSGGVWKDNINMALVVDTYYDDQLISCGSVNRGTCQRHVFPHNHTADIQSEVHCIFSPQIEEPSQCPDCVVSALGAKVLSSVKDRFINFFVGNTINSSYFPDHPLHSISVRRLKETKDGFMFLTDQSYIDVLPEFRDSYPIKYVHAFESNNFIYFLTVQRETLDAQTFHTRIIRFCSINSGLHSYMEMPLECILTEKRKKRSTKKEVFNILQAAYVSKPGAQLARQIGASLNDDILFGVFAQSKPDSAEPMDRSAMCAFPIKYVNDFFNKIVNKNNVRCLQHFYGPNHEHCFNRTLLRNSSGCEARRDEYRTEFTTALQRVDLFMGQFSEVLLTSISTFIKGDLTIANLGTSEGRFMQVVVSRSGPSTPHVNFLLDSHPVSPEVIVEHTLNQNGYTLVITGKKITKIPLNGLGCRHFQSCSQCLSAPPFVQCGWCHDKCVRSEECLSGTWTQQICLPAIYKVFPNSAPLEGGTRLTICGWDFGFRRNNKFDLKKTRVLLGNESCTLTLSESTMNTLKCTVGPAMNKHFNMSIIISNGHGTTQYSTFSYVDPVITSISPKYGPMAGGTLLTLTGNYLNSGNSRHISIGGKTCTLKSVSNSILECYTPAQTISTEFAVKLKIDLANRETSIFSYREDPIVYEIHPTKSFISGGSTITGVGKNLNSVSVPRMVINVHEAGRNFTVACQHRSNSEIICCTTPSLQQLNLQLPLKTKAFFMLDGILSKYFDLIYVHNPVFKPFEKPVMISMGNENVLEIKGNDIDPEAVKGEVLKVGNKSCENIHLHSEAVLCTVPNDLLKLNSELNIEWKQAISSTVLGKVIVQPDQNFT
Briefly: SPR (BIAcore), c-Met amine-coupled on CM5 chip, Fab 16-500 nM as analyte. How it is done: (§2) Using these clones, kinetic SPR analysis is performed on a CM5 chip (Biacore, Sweden) which had been coated with a density of ˜400 RU of either recombinant human c-Met, in 10 mM Na-acetate pH 4.5 using standard EDC-NHS amine coupling chemistry. […] PBS (136 mM NaCl, 2.7 mM KCl, 10 mM Na2HPO4 , 1.76 mM KH2PO4 pH 7.4) is used as the running buffer. The Fab preparations are applied in concentration series of 16-500 nM at a flow rate of 20 μl/min. Association phase is set to 60 s and dissociation phase to 120 s.
(Surface plasmon resonance follows binding to a sensor surface in real time, without labels.)

Experiment [5] deals with T2, cynomolgus c-Met on CHO cells. Kind of experiment: flow cytometry, Fab on CHO-cyno c-Met cells. How it is done: as §1
Experiment [6] concerns the target T3, full length human c-Met on cells. Kind of experiment: flow cytometry, Fab on GTL-16 cells. How it is done: as §1
Experiment [7] concerns the target T4, recombinant human c-Met. Kind of experiment: SPR (BIAcore), Fab on immobilised human c-Met. How it is done: as §2
Experiment [8] concerns the target T2, cynomolgus c-Met on CHO cells. Kind of experiment: flow cytometry, Fab on CHO-cyno c-Met cells. As to the method:
as §1
(§3) Using the assay conditions described above, the affinities for the affinity-optimized anti-c-Met Fabs are determined in solution. Affinities are determined for antibodies with KDs below 4.6 pM to human c-Met. FACs based analysis of binding to cyno-c-Met expressed on CHO cells, as described above, is carried out.
This is another data set of the same source.

Experiment [9] addresses T4, recombinant human c-Met. Kind of experiment: solution equilibrium titration (SET), ECL detection (BioVeris), Fab with human c-Met in solution. How it is done:
Electrochemiluminescence (ECL) based affinity determination in solution and data evaluation are basically performed as described by Haenel et al., 2005. A constant amount of Fab is equilibrated with different concentrations (serial 3ⁿ dilutions) of human c-Met (4 nM starting concentration) in solution. Biotinylated human c-Met coupled to paramagnetic beads (M-280 Streptavidin, Dynal), and BV-Tag™ (BioVeris Europe, Witney, Oxfordshire, UK) labelled anti-human (Fab)′₂ (Dianova) is added and the mixture incubated for 30 min. Subsequently, the concentration of unbound Fab is quantified by ECL detection using the M-SERIES® 384 analyzer (BioVeris Europe).
as §3

B1: 04682 (parental anti-cMet Fab antibody) (Fab, V domains shown)
VH: QVQLVQSGAEVKKPGESLKISCKGSGYSFTNYGIAWVRQMPGKGLEWMGIIYPSDSYTNYSPSFQGQVTISADKSISTAYLQWSSLKASDTAMYYCARMSYDYQHQAPSMDSWGQGTLVTVSS
VL: DIVLTQPPSVSGAPGQRVTISCSGSSSNIGSNYVIWYQQLPGTAPKLLIYDDTNRPSGVPDRFSGSKSGTSASLAITGLQSEDEADYYCSTYDNYQAGWVFGGGTKLTVLG
notes: carries two C-terminal tags (FLAG and 6xHis)
For the molecule B1, the Kd is 0.3 nM in experiment [1], 0.3 nM in [2], 1.2 nM in [3] and 11.2 nM with recombinant human c-Met [4].

B2: 04536 (parental anti-cMet Fab antibody) (Fab, V domains shown)
VH: QVQLVQSGAEVKKPGASVKVSCKASGYTFTGYYMNWVRQAPGQGLEWMGIINPWTGNTNYAQKFQGRVTMTRDTSISTAYMELSSLRSEDTAVYYCARDPGFFYYTPSDLWGQGTLVTVSS
VL: DIELTQPPSVSVAPGQTARISCSGDSIGNKYVHWYQQKPGQAPVLVIYADSDRPSGIPERFSGSNSGNTATLTISGTQAEDEADYYCQAYDSSMLRVFGGGTKLTVLG
notes: as for B1
Consider B2, for which the Kd in [5] amounted to 229 nM; in [6], 1.7 nM; in [1], 0.1 nM; with recombinant human c-Met [7], 1.4 nM; in experiment [2], 0.5 nM; in experiment [3] it was 0.4 nM. For the same molecule, the Kd with recombinant human c-Met [4] was found to be 1.4 nM.

B3: 04687 (parental anti-cMet Fab antibody) (Fab, V domains shown)
VH: QVQLVQSGAEVKKPGSSVKVSCKASGGTFSSYAISWVRQAPGQGLEWMGGIDPFGTANYAQKFQGRVTITADESTSTAYMELSSLRSEDTAVYYCARVYQDVWGQGTLVTVSS
VL: DIVMTQSPDSLAVSLGERATINCRSSQSILYGINNNFLGWYQQKPGQPPKLLIYWASTRESGVPDRFSGSGSGTDFTLTISSLQAEDVAVYYCQQYYNHPHTFGQGTKVEIKR
notes: as for B1
As to B3, the Kd amounted to 1.3 nM in experiment [5]; 4 nM in experiment [6]; 1.2 nM in [1]; 0.8 nM with recombinant human c-Met [7]; 1.1 nM in experiment [2]; 5.7 nM in [3]. Further, the Kd with recombinant human c-Met [4] was found to be 0.8 nM.

B4: 05097 (affinity-improved anti-cMet Fab antibody) (Fab, V domains shown)
VH: QVQLVQSGAEVKKPGSSVKVSCKASGGTFSSYAISWVRQAPGQGLEWMGGIDPFGTANYAQKFQGRVTITADESTSTAYMELSSLRSEDTAVYYCARVYQDVWGQGTLVTVSS
VL: DIVMTQSPDSLAVSLGERATINCRSSQSILYGINNNFLGWYQQKPGQPPKLLIYWASTRESGVPDRFSGSGSGTDFTLTISSLQAEDVAVYYCQQYAFGWTFGQGTKVEIKR
Take B4: the Kd was 0.00068 nM in experiment [8] and 0.0036 nM with recombinant human c-Met [9].

B5: 05098 (affinity-improved anti-cMet Fab antibody) (Fab, V domains shown)
VH: QVQLVQSGAEVKKPGSSVKVSCKASGGTFSSYAISWVRQAPGQGLEWMGGIDPFGTANYAQKFQGRVTITADESTSTAYMELSSLRSEDTAVYYCARVYQDVWGQGTLVTVSS
VL: DIVMTQSPDSLAVSLGERATINCRSSQSILYGINNNFLGWYQQKPGQPPKLLIYWASTRESGVPDRFSGSGSGTDFTLTISSLQAEDVAVYYCLQYSDEPWTFGQGTKVEIKR
For B5, the Kd in experiment [8] is 0.0003 nM; with recombinant human c-Met [9], 0.0021 nM.

B6: 05185 (affinity-improved anti-cMet Fab antibody) (Fab, V domains shown)
VH: QVQLVQSGAEVKKPGSSVKVSCKASGGTFSSYAISWVRQAPGQGLEWMGGIDPIMGTEYAQKFQGRVTITADESTSTAYMELSSLRSEDTAVYYCARVYQDVWGQGTLVTVSS
VL: DIVMTQSPDSLAVSLGERATINCRSSQSILYGINNNFLGWYQQKPGQPPKLLIYWASTRESGVPDRFSGSGSGTDFTLTISSLQAEDVAVYYCQQYAYEPNTFGQGTKVEIKR
Consider B6, for which the Kd in [8] amounted to 0.00029 nM; with recombinant human c-Met [9], 0.0046 nM.
